One test deals with T1, Aurora kinase A (AURKA) (Homo sapiens, UniProt O14965).
T1 construct: residues 122–403
T1 sequence (O14965 122-403): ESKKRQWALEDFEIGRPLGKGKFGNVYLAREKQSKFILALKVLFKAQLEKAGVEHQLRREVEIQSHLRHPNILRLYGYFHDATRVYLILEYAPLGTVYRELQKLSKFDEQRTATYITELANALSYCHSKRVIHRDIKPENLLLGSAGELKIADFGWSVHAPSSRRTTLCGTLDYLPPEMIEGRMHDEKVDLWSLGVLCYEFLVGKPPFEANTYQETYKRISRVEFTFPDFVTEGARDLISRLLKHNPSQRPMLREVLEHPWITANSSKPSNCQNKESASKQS
The experiment in a line: crystal structure ([…] Å) and isothermal titration calorimetry. Format: binding. A general note: In ITC the heat of successive injections is recorded.

Another test addresses T2, Aurora kinase C (AURKC) (Homo sapiens, UniProt Q9UQB9).
T2 construct: residues 36–305 of AURKC isoform 1; with INCENP (residues 835–903, phosphorylated on Ser893 and Ser894)
The experiment in a line: co-crystal structure ([…] Å). Format: binding.

Another test deals with T3, Aurora kinase B (AURKB) (Homo sapiens, UniProt Q96GD4).
T3 construct: kinase domain co-expressed with INCENP residues 835–903; with INCENP (residues 835–903)
The experiment in a line: isothermal titration calorimetry; BLI kinetics (slow off-rate). It counts as binding.

Test [1] has as its target T4, Aurora kinase C kinase domain (truncation not stated for this experiment), phosphorylated (human).
T4 sequence (Q9UQB9 whole entry, looked up): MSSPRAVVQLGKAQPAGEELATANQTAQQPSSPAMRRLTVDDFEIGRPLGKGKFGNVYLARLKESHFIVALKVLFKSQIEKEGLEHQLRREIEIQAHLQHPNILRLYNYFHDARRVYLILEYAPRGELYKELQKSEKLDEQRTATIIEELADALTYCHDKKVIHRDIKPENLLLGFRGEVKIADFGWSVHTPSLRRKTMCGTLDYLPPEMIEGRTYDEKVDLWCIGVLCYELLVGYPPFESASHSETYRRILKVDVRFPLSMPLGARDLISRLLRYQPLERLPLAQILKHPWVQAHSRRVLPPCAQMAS

Test [2] shares this target. The experiment in a line: native MS; native nano-ESI ion mobility-mass spectrometry of the co-purified complexes, 250 mM ammonium acetate, ca. 10 µM, gentle ionisation conditions.
Test [3] addresses T5, Aurora kinase C kinase domain (truncation not stated for this experiment), phosphorylated.
T5 chain: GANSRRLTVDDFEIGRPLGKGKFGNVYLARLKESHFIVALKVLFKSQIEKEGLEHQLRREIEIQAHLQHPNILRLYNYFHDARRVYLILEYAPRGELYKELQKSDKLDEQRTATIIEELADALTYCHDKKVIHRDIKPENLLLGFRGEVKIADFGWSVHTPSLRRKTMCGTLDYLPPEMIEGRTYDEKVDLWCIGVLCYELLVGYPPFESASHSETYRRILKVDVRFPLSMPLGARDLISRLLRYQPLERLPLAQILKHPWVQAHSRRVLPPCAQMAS
The experiment in a line: native mass spectrometry (native ESI-MS). To be noted: chain shown with the change; concentration of ca. 10 µM; same gentle ionisation conditions; parent: 0.

We go through 6 molecules from PMC6639382, “Structural mechanism of synergistic activation of Aurora kinase B/C by phosphorylated INCENP” (Nature Communications, 2019).

The Kd is the constant that tells how readily two partners part at equilibrium.

T3 sequence (Q96GD4 77-327 limits assumed): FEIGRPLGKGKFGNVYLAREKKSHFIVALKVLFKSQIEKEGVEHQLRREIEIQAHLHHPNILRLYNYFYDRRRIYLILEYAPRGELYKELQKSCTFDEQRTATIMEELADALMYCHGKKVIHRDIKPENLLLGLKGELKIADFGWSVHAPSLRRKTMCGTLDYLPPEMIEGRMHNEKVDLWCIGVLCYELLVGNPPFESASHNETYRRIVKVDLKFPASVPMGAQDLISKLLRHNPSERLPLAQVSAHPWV
T3 sequence (Q9NQS7 835-903 partner): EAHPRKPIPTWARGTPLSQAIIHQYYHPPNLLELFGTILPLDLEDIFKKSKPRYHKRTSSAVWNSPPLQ
T2 sequence (Q9NQS7 835-903 partner, one chain of several): as the sequence (Q9NQS7 835-903 partner) above

Take `COc1ccc(NC(=O)Nc2ccc3c(c2)C(=O)N([C@@H](C)CO)C[C@H](C)[C@H](CN(C)Cc2ccc4c(c2)OCO4)O3)cc1` [BRD-7880]: the Kd on Aurora kinase A (AURKA) is 341 nM; at Aurora kinase B (AURKB) it was 16 nM. Also, the “co-crystal structure (1.75 Å)” value at Aurora kinase C (AURKC) is “The co-crystal structure with AURKC:INCENP reveals a completely ordered BRD-7880 molecule (Fig. 5a) which binds in the ATP-binding site”.
As for “INCENP IN-box (residues 835–903) S893A (from UniProt Q9NQS7-1 835-903) (domain or fragment)”, in test [1], the Kcat of the AURKC:INCENP complex on a peptide substrate is 46300 and the Km(peptide) of the AURKC:INCENP complex came out at 83 µM.
In the same order, the values of “INCENP IN-box (residues 835–903) S894A (from UniProt Q9NQS7-1 835-903) (domain or fragment)” are 38800 s⁻¹ and 83 µM.
In the same order, the values of “INCENP IN-box (residues 835–903) W897A (from UniProt Q9NQS7-1 835-903) (domain or fragment)” are 41800 and 25.1 µM.
For the molecule “INCENP IN-box (residues 835–903), phosphorylated on the TSS motif (from UniProt Q9NQS7-1 835-903) (domain or fragment)”, in test [1], the Kcat of the AURKC:INCENP complex on a peptide substrate was determined as 48800 and the Km(peptide) of the AURKC:INCENP complex amounted to 18.7 µM. For the same molecule, the % complex formed in test [2] stood at 100%.

B1: INCENP IN-box (residues 835–903), phosphorylated on the TSS motif, Q9NQS7-1 S893A; S894A; W897A (protein)
chain: MEAHPRKPIPTWARGTPLSQAIIHQYYHPPNLLELFGTILPLDLEDIFKKSKPRYHKRTAAAVANSPPLQ
Turning to B1, in test [3], the other: % unbound AURKC (% unbound AURKC) was 40.
